The values below come from patent CN111018982A (DONGGUAN PENGZHI BIOTECHNOLOGY CO LTD, dated 2020).

One may read the Kd as the free concentration of one partner at which half of the binding sites on the other are occupied at equilibrium, for simple one-to-one binding. Broadly, the koff is the rate constant with which the complex falls apart. A word on the kon: it is the second-order rate constant of association.

Where two headings read alike, the source gives them in different places.

Assay [1] concerns the target T1, cTnI质控品重组抗原 (human, UniProt P19429 1-210, limits assumed).
T1 construct: 人cTnI蛋白); also called cTnI质控品重组蛋白(公司自产重组抗原); 心肌肌钙蛋白I
The experiment in a line: BLI, antibody captured on AMC sensor, cTnI recombinant protein in solution. (In general: BLI is a label-free optical method that tracks binding on a fibre tip over time.)

The target of assay [2] is T1, cTnI质控品重组抗原. Described as above. This is another data set of the same source.

T1 sequence (P19429 whole entry): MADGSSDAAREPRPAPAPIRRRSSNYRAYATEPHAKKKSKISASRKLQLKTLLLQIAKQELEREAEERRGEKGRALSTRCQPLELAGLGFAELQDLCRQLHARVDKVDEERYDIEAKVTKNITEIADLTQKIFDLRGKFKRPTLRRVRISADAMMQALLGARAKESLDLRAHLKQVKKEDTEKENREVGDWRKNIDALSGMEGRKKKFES

B1: Anti-cTnI 3C7 重组抗体 (WT) (antibody, V domains shown)
VH: EVKLDETGGGLVQPGRPMKLSCIASGATFSGYWMQWVRQSPEKGLEWVAQLRNGPYDFDTFYSDSVKDRFTISRDDSKSVYLQMNNLRAEDMGIYYCTPHFVHWGQGTLVTVSA
VL: DIVMTQSPSSLSVSEGEKVTLRCKSSNSLFNSGNQQNYLAWYQQKPGQPPKLLIYGPSTREFGVPDRFTGSGSGTDFTLISNVQEDLAVYYCQTDRTSAYTFGGGTKLEIK
Take B1: in the assay with cTnI质控品重组抗原 [1], the Kd is 33.5 nM, the koff amounted to 0.00018 s⁻¹ and the kon was 5360 M⁻¹ s⁻¹. In the assay with cTnI质控品重组抗原 [2], the Kd came out at 33.5 nM, the koff was found to be 0.00018 s⁻¹ and the kon is 5360 M⁻¹ s⁻¹.

B2: WT 1-22 (antibody, V domains shown)
VH: EVQLQQSGPELVKPGASVKMSCKASGYSFTLYVLHWVKQKPGQGLEWIGYIYPYIDGTRYNEKFKGKATLTVDKSSSTAFMELSSLTSEDSAVYYCARTGYGNYGLAWLAYWGQGTLVTVSA
VL: QAVVIQESALTTSPGETVTLTCRSSSGAVTTSQYANWVQEKPDHLFTGLIGGSNNRVPGVPARFSGSLIGDKAALTITGAQTEDEAIYFCAIVYSNNWVFGGGTKLTVLG
Regarding B2, in the assay with cTnI质控品重组抗原 [1], the Kd was 47.8 nM, the koff worked out at 0.000308 s⁻¹ and the kon was found to be 6450 M⁻¹ s⁻¹.

B3: WT 1-5 (antibody, V domains shown)
VH: QVQLQQSGTELAKPGASVKFSCKASDYTFSSYWMYWIKQRPGQGLEWIGYLNPSTGHTEYNQKFKDKATLTADKSSSTAYMQLNSLTSEDSAVYYCARKYWGPFAMDYWGQGTSVTVSS
VL: EIFLTQSPAIMSASPGEKVTMTCSASSSVSYAHWYQQKSGTSPKRWIYDSSKIASGIPVRFSGSGSGTSYSLTISSMEAEDAATYYCQNWSTNPYTFGGGTKLEIKR
In the case of B3, in the assay with cTnI质控品重组抗原 [1], the Kd worked out at 80.6 nM, the koff is 0.000533 s⁻¹ and the kon turned out to be 6610 M⁻¹ s⁻¹.
